# From publication PMC10776854
# B1: MARCH6-FLAG WT [human] / SQLE [human (endogenous in K562)] (parent)
# chain 1: MDTAEEDICRVCRSEGTPEKPLYHPCVCTGSIKFIHQECLVQWLKHSRKEYCELCKHRFAFTPIYSPDMPSRLPIQDIFAGLVTSIGTAIRYWFHYTLVAFAWLGVVPLTACRIYKCLFTGSVSSLLTLPLDMLSTENLLADCLQGCFVVTCTLCAFISLVWLREQIVHGGAPIWLEHAAPPFNAAGHHQNEAPAGGNGAENVAADQPANPPAENAVVGENPDAQDDQAEEEEEDNEEEDDAGVEDAADANNGAQDDMNWNALEWDRAAEELTWERMLGLDGSLVFLEHVFWVVSLNTLFILVFAFCPYHIGHFSLVGLGFEEHVQASHFEGLITTIVGYILLAITLIICHGLATLVKFHRSRRLLGVCYIVVKVSLLVVVEIGVFPLICGWWLDICSLEMFDATLKDRELSFQSAPGTTMFLHWLVGMVYVFYFASFILLLREVLRPGVLWFLRNLNDPDFNPVQEMIHLPIYRHLRRFILSVIVFGSIVLLMLWLPIRIIKSVLPNFLPYNVMLYSDAPVSELSLELLLLQVVLPALLEQGHTRQWLKGLVRAWTVTAGYLLDLHSYLLGDQEENENSANQQVNNNQHARNNNAIPVVGEGLHAAHQAILQQGGPVGFQPYRRPLNFPLRIFLLIVFMCITLLIASLICLTLPVFAGRWLMSFWTGTAKIHELYTAACGLYVCWLTIRAVTVMVAWMPQGRRVIFQKVKEWSLMIMKTLIVAVLLAGVVPLLLGLLFELVIVAPLRVPLDQTPLFYPWQDWALGVLHAKIIAAITLMGPQWWLKTVIEQVYANGIRNIDLHYIVRKLAAPVISVLLLSLCVPYVIASGVVPLLGVTAEMQNLVHRRIYPFLLMVVVLMAILSFQVRQFKRLYEHIKNDKYLVGQRLVNYERKSGKQGSSPPPPQSSQE
# chain 2: MWTFLGIATFTYFYKKFGDFITLANREVLLCVLVFLSLGLVLSYRCRHRNGGLLGRQQSGSQFALFSDILSGLPFIGFFWAKSPPESENKEQLEARRRRKGTNISETSLIGTAACTSTSSQNDPEVIIVGAGVLGSALAAVLSRDGRKVTVIERDLKEPDRIVGEFLQPGGYHVLKDLGLGDTVEGLDAQVVNGYMIHDQESKSEVQIPYPLSENNQVQSGRAFHHGRFIMSLRKAAMAEPNAKFIEGVVLQLLEEDDVVMGVQYKDKETGDIKELHAPLTVVADGLFSKFRKSLVSNKVSVSSHFVGFLMKNAPQFKANHAELILANPSPVLIYQISSSETRVLVDIRGEMPRNLREYMVEKIYPQIPDHLKEPFLEATDNSHLRSMPASFLPPSSVKKRGVLLLGDAYNMRHPLTGGGMTVAFKDIKLWRKLLKGIPDLYDDAAIFEAKKSFYWARKTSHSFVVNILAQALYELFSATDDSLHQLRKACFLYFKLGGECVAGPVGLLSVLSPNPLVLIGHFFAVAIYAVYFCFKSEPWITKPRALLSSGAVLYKACSVIFPLIYSEMKYMVH
# Variants of: B1
# Assay: FLAG-immunoprecipitation, Western blot densitometry
# Conditions: with SQLE [human (endogenous in K562)], K562 cells expressing MARCH6-FLAG, eight independent biological replicates, parent: 0.55, read off a plot
row,response (SQLE/MARCH6 ratio),Variant
1,0.24,chain 1 Y96V
2,0.5,chain 1 L140A L747A
3,0.27,chain 1 Y92V Y96V
4,0.89,chain 1 Y92V
